# According to PMC5778458:
# Like-named read-outs stand apart in the source and are kept apart here.
# T1: Cbf5p;Nop10p;Gar1p;Nhp2p (Saccharomyces cerevisiae;Saccharomyces …, UniProt P33322;Q6Q547;P28007;P32495 1-483;1-58;1-205;1-156, |||)
# T1 sequence 1: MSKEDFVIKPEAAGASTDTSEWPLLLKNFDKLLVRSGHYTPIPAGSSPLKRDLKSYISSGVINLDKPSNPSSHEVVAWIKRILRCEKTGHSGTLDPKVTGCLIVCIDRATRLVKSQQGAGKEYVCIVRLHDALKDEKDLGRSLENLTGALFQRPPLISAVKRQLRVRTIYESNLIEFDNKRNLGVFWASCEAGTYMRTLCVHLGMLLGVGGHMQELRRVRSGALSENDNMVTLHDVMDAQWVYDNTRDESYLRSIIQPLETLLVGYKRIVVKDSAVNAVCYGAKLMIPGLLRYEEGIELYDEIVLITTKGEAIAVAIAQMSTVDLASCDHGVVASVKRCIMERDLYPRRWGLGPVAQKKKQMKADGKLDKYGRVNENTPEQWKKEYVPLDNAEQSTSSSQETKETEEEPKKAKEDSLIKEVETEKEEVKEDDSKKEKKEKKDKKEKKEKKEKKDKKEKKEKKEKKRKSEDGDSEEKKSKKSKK
# T1 sequence 2: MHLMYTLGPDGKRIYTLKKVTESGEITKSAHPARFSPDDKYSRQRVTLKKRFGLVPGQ
# T1 sequence 3: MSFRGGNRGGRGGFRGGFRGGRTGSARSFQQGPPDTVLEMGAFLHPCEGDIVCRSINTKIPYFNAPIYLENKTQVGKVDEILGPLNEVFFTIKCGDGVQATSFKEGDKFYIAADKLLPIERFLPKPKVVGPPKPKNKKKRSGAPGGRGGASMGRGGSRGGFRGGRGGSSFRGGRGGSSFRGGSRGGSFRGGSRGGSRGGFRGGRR
# T1 sequence 4: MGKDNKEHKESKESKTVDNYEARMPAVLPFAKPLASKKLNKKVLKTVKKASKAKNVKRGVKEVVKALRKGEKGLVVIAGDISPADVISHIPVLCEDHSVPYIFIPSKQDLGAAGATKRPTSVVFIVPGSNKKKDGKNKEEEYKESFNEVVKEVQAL
# T2: Cbf5p;Nop10p;Gar1p (Saccharomyces cerevisiae;Saccharomyces …, UniProt P33322;Q6Q547;P28007 1-483;1-58;1-205, ||)
# T2 sequence 1: T1 sequence 1
# T2 sequence 2: T1 sequence 2
# T2 sequence 3: T1 sequence 3
# B1: snR34 5' HP extended stem (structured_RNA)
# RNA: GGGAAUCAAAAAUUUAUUUUUUACACGGAAACGAUGCCACAGUUGACUGAACCUGUCUUCUAACAGUAGUUAAUUGCCAGUAUUUCCGUGUAAACAAGA
# How the values were obtained:
# Assay in all cases: filter binding
# [1] = target: T1, Cbf5p;Nop10p;Gar1p;Nhp2p
# [2] = target: T1, Cbf5p;Nop10p;Gar1p;Nhp2p; remark: listed apart in the source
# [3] = target: T2, Cbf5p;Nop10p;Gar1p
# [4] = target: T1, Cbf5p;Nop10p;Gar1p;Nhp2p; remark: listed apart in the source
Binder,Kd [1],Kd [3],other results
GGGACGUCGGCUCUUCCUAUCAUACC (mixed) [snR34 delta Box ACA guide + 3' substrate RNA],0.15 ± 0.03 µM,,
GGGACGUCGGCUCUUCCUAUCAUACC (mixed) [snR34 delta Box H guide + 3' substrate RNA],0.09 ± 0.03 µM,,
B1,,,Kd [2]: 0.0013 ± 0.0005 µM
GGGGACAACUGGCUUGUGGCAGCCA (mixed) [snR34 guide + 5' substrate RNA],,0.05 ± 0.02 µM,Kd [4]: 0.053 ± 0.022 µM
GGGACGUCGGCUCUUCCUAUCAUACC (mixed) [snR34 guide + 3' substrate RNA],,0.09 ± 0.02 µM,
